Data as given in US20250154231A1.
Like-named read-outs stand apart in the source and are kept apart here.

Legend:
Assay in all cases: cell-based or functional assay
[1] = target: SARS-CoV-2 spike (S) protein, Omicron BA.2.75 (SARS-CoV-2) (UniProt P0DTC2)
[2] = target: SARS-CoV-2 spike (S) protein, Omicron BA.2 (SARS-CoV-2) (UniProt P0DTC2)
[3] = target: SARS-CoV-2 spike (S) protein, Omicron BA.4.6 (SARS-CoV-2) (UniProt P0DTC2)
[4] = target: SARS-CoV-2 spike (S) protein, Omicron BA.2.75.2 (SARS-CoV-2) (UniProt P0DTC2)
[5] = target: SARS-CoV-2 spike (S) protein, Victoria strain (SARS-CoV-2) (UniProt P0DTC2)
[6] = target: SARS-CoV-2 spike (S) protein, Omicron BA.2.3.20 (SARS-CoV-2) (UniProt P0DTC2)
[7] = target: SARS-CoV-2 spike (S) protein, Omicron BA.2.75 (SARS-CoV-2) (UniProt P0DTC2); remark: listed apart in the source
[8] = target: SARS-CoV-2 spike (S) protein, Omicron BJ.1 (SARS-CoV-2) (UniProt P0DTC2)
[9] = target: SARS-CoV-2 spike (S) protein, Omicron BA.4/5 (SARS-CoV-2) (UniProt P0DTC2)
[10] = target: SARS-CoV-2 spike (S) protein, Omicron BA.2 (SARS-CoV-2) (UniProt P0DTC2); remark: listed apart in the source
[11] = target: SARS-CoV-2 spike (S) protein, Omicron BA.1 (SARS-CoV-2) (UniProt P0DTC2)
[12] = target: SARS-CoV-2 Omicron BA.1.1 spike (S) protein (SARS-CoV-2) (UniProt P0DTC2)
[13] = target: SARS-CoV-2 Beta spike (S) protein (SARS-CoV-2) (UniProt P0DTC2)
[14] = target: SARS-CoV-2 Omicron BA.1 spike (S) protein of the pseudovirus (SARS-CoV-2) (UniProt P0DTC2)
[15] = target: SARS-CoV-2 Omicron (BA.1) spike (S) protein, live virus isolate (SARS-CoV-2) (UniProt P0DTC2)
[16] = target: SARS-CoV-2 Beta (B.1.351) spike (S) protein (SARS-CoV-2) (UniProt P0DTC2)
[17] = target: SARS-CoV-2 spike (S) protein, Victoria strain (SARS-CoV-2) (UniProt P0DTC2); remark: listed apart in the source
[18] = target: SARS-CoV-2 Omicron BA.1.1 spike (S) protein, pseudovirus construct (SARS-CoV-2) (UniProt P0DTC2)
[19] = target: SARS-CoV-2 spike (S) protein, Omicron BA.1.1 (SARS-CoV-2) (UniProt P0DTC2)
[20] = target: SARS-CoV-2 Omicron BA.2 spike (S) protein (SARS-CoV-2) (UniProt P0DTC2)
[21] = target: SARS-CoV-2 Gamma spike (S) protein (SARS-CoV-2) (UniProt P0DTC2)
[22] = target: SARS-CoV-2 Gamma (P.1) spike (S) protein (SARS-CoV-2) (UniProt P0DTC2)
[23] = target: SARS-CoV-2 Omicron BA.2 spike (S) protein, pseudovirus construct (SARS-CoV-2) (UniProt P0DTC2)
[24] = target: SARS-CoV-2 Delta spike (S) protein (SARS-CoV-2) (UniProt P0DTC2)
[25] = target: SARS-CoV-2 Omicron BA.3 spike (S) protein (SARS-CoV-2) (UniProt P0DTC2)
[26] = target: SARS-CoV-2 spike (S) protein, Omicron BA.2.75 (SARS-CoV-2) (UniProt P0DTC2); remark: listed apart in the source
[27] = target: SARS-CoV-2 Victoria spike (S) protein (SARS-CoV-2) (UniProt P0DTC2)
[28] = target: SARS-CoV-2 spike (S) protein, Omicron BA.4/5 (SARS-CoV-2) (UniProt P0DTC2); remark: listed apart in the source
[29] = target: SARS-CoV-2 Omicron BA.1 spike (S) protein of the live isolate (SARS-CoV-2) (UniProt P0DTC2)
[30] = target: SARS-CoV-2 Alpha (B.1.1.7) spike (S) protein (SARS-CoV-2) (UniProt P0DTC2)
[31] = target: SARS-CoV-2 Alpha spike (S) protein (SARS-CoV-2) (UniProt P0DTC2)
[32] = target: SARS-CoV-2 spike (S) protein, Omicron BA.3 (SARS-CoV-2) (UniProt P0DTC2)
[33] = target: SARS-CoV-2 Omicron BA.1 spike (S) protein, pseudovirus construct (SARS-CoV-2) (UniProt P0DTC2)
[34] = target: SARS-CoV-2 Omicron BA.3 spike (S) protein, pseudovirus construct (SARS-CoV-2) (UniProt P0DTC2)
[35] = target: SARS-CoV-2 Omicron BA.4/5 spike (S) protein (SARS-CoV-2) (UniProt P0DTC2)
[36] = target: SARS-CoV-2 spike (S) protein, Omicron BA.2 (SARS-CoV-2) (UniProt P0DTC2); remark: listed apart in the source
[37] = target: SARS-CoV-2 spike (S) protein, Omicron BA.2.75 (SARS-CoV-2) (UniProt P0DTC2); remark: listed apart in the source
[38] = target: SARS-CoV-2 spike (S) protein, Omicron BA.4.6 (SARS-CoV-2) (UniProt P0DTC2); remark: listed apart in the source

Omi-03 (antibody)
pseudovirus neutralisation IC50 [1]: 0.017 µg/mL | pseudovirus neutralisation IC50 [2]: 0.008 µg/mL | IC50, pseudoviral neutralization [3]: 0.006 µg/mL | IC50, pseudoviral neutralization [4]: 0.546 µg/mL | IC50, pseudoviral neutralization [5]: 0.003 µg/mL | IC50, pseudoviral neutralization [6]: 0.02 µg/mL | IC50, pseudoviral neutralization [7]: 0.017 µg/mL | IC50, pseudoviral neutralization [8]: 0.014 µg/mL | IC50, pseudoviral neutralization [9]: 0.017 µg/mL | IC50, pseudoviral neutralization [10]: 0.008 µg/mL | pseudovirus neutralisation IC50 [11]: 0.005 µg/mL | IC50, authentic virus neutralization [12]: 0.015 µg/mL | IC50, pseudovirus neutralization [12]: 0.003 µg/mL | IC50, authentic virus neutralization [13]: 0.009 µg/mL | IC50, pseudovirus neutralization [14]: 0.005 µg/mL | Authentic virus-IC50 [15]: 0.009 µg/mL | Authentic virus-IC50 [16]: 0.009 µg/mL | pseudovirus neutralisation IC50 [17]: 0.003 µg/mL | Pseudovirus - IC50 [18]: 0.003 µg/mL | pseudovirus neutralisation IC50 [19]: 0.003 µg/mL | IC50, authentic virus neutralization [20]: 0.028 µg/mL | IC50, pseudovirus neutralization [20]: 0.008 µg/mL | IC50, authentic virus neutralization [21]: 0.004 µg/mL | Authentic virus-IC50 [22]: 0.004 µg/mL | Pseudovirus - IC50 [23]: 0.008 µg/mL | Authentic virus-IC50 [24]: 0.004 µg/mL | IC50, authentic virus neutralization [24]: 0.004 µg/mL | IC50, pseudovirus neutralization [25]: 0.022 µg/mL | pseudovirus neutralisation IC50 [26]: 0.017 µg/mL | Authentic virus-IC50 [27]: 0.007 µg/mL | IC50, authentic virus neutralization [27]: 0.007 µg/mL | IC50, pseudovirus neutralization [27]: 0.003 µg/mL | Pseudovirus - IC50 [27]: 0.003 µg/mL | pseudovirus neutralisation IC50 [28]: 0.017 µg/mL | IC50, authentic virus neutralization [29]: 0.009 µg/mL | Authentic virus-IC50 [30]: 0.012 µg/mL | IC50, authentic virus neutralization [31]: 0.012 µg/mL | pseudovirus neutralisation IC50 [32]: 0.022 µg/mL | Pseudovirus - IC50 [33]: 0.005 µg/mL | Pseudovirus - IC50 [34]: 0.022 µg/mL | IC50, pseudovirus neutralization [35]: 0.017 µg/mL | pseudovirus neutralisation IC50 [36]: 0.008 µg/mL

REGN10933 (antibody)
pseudovirus neutralisation IC50 [37]: > 10 µg/mL | IC50, pseudoviral neutralization [3]: > 10 µg/mL | IC50, pseudoviral neutralization [4]: > 10 µg/mL | IC50, pseudoviral neutralization [5]: 0.001 µg/mL | IC50, pseudoviral neutralization [6]: 8.62 µg/mL | IC50, pseudoviral neutralization [7]: > 10 µg/mL | IC50, pseudoviral neutralization [8]: > 10 µg/mL | IC50, pseudoviral neutralization [9]: > 10 µg/mL | IC50, pseudoviral neutralization [10]: > 10 µg/mL | IC50, pseudoviral neutralization [11]: > 10 µg/mL | pseudovirus neutralisation IC50 [11]: > 10 µg/mL | IC50, pseudoviral neutralization [38]: > 10 µg/mL | IC50, authentic virus neutralization [12]: > 10 µg/mL | IC50, authentic virus neutralization [13]: 3.28 µg/mL | IC50, pseudoviral neutralization [17]: 0.001 µg/mL | pseudovirus neutralisation IC50 [17]: 0.001 µg/mL | IC50, pseudoviral neutralization [19]: > 10 µg/mL | pseudovirus neutralisation IC50 [19]: > 10 µg/mL | IC50, authentic virus neutralization [20]: > 10 µg/mL | IC50, authentic virus neutralization [21]: 6.18 µg/mL | IC50, authentic virus neutralization [24]: 0.003 µg/mL | IC50, authentic virus neutralization [27]: 0.004 µg/mL | IC50, pseudoviral neutralization [28]: > 10 µg/mL | pseudovirus neutralisation IC50 [28]: > 10 µg/mL | IC50, authentic virus neutralization [29]: > 10 µg/mL | IC50, authentic virus neutralization [31]: 0.014 µg/mL | IC50, pseudoviral neutralization [32]: > 10 µg/mL | pseudovirus neutralisation IC50 [32]: > 10 µg/mL | IC50, pseudoviral neutralization [36]: > 10 µg/mL | pseudovirus neutralisation IC50 [36]: > 10 µg/mL

AZD1061 (antibody)
pseudovirus neutralisation IC50 [37]: 0.021 µg/mL | IC50, pseudoviral neutralization [3]: > 10 µg/mL | IC50, pseudoviral neutralization [4]: > 10 µg/mL | IC50, pseudoviral neutralization [5]: 0.002 µg/mL | IC50, pseudoviral neutralization [6]: > 10 µg/mL | IC50, pseudoviral neutralization [7]: 0.021 µg/mL | IC50, pseudoviral neutralization [8]: > 10 µg/mL | IC50, pseudoviral neutralization [9]: 0.015 µg/mL | IC50, pseudoviral neutralization [10]: 0.008 µg/mL | IC50, pseudoviral neutralization [11]: 0.308 µg/mL | pseudovirus neutralisation IC50 [11]: 0.308 µg/mL | IC50, pseudoviral neutralization [38]: > 10 µg/mL | IC50, authentic virus neutralization [12]: > 10 µg/mL | IC50, authentic virus neutralization [13]: 0.014 µg/mL | IC50, pseudoviral neutralization [17]: 0.002 µg/mL | pseudovirus neutralisation IC50 [17]: 0.002 µg/mL | IC50, pseudoviral neutralization [19]: > 10 µg/mL | pseudovirus neutralisation IC50 [19]: > 10 µg/mL | IC50, authentic virus neutralization [20]: 0.028 µg/mL | IC50, authentic virus neutralization [21]: 0.007 µg/mL | IC50, authentic virus neutralization [24]: 0.038 µg/mL | IC50, authentic virus neutralization [27]: 0.013 µg/mL | IC50, pseudoviral neutralization [28]: 0.015 µg/mL | pseudovirus neutralisation IC50 [28]: 0.015 µg/mL | IC50, authentic virus neutralization [29]: 3.49 µg/mL | IC50, authentic virus neutralization [31]: 0.012 µg/mL | IC50, pseudoviral neutralization [32]: 0.019 µg/mL | pseudovirus neutralisation IC50 [32]: 0.019 µg/mL | IC50, pseudoviral neutralization [36]: 0.008 µg/mL | pseudovirus neutralisation IC50 [36]: 0.008 µg/mL
